Measurements from patent US20230047413A1 (Janssen / Centocor, published 2023).
Where “and” joins values, the source holds several entries; their conditions need not be identical. Equal entries are not always repeated.

Experiments:
Peptide-2 [1] = molecular target: T1, Peptide-2 (human, phosphothreonine 212, phosphothreonine 217 (tau 2N4R numbering); short chain biotin (SCBiot) and dPEG4 at the N-terminus; amide at the C-terminus); assay: SPR ProteOn, peptide captured, Fab as analyte; Peptide-2 (pT212/pT217); peptide mapping run of Table 6, n=2
T1 construct: also called pT212/pT217-tau peptide (Peptide-2)
Protocol: (§1) The binding affinity of PT3 Fab towards each of the fourteen tau phosphopeptides shown in Table 6 was assessed by surface plasmon resonance (SPR) using a Bio-Rad ProteOn XPR36. Peptides were synthesized by standard chemical methods (New England Peptide) with short-chain biotin and a PEG4 moiety at the N-terminus. Biotinylated peptide was captured on a neutravidin-coated NLC biosensor chip and PT3 Fab was flowed over the surface to measure kinetic parameters.
(§2) All experiments were performed at 25° C. using phosphate buffered saline, pH 7.4, 0.005% Tween 20 (PBST) as both running buffer and sample dilution buffer. Prior to running samples, the NLC chip was conditioned by running PBST over the chip surface for 1 h. Approximately 5-10 RU of peptide was captured on the chip surface by diluting peptide to 10 ng/mL in PBST and injecting over the flow channels at 30 μL/min for 100 s. Serial dilutions of PT3 Fab (1.1-90 nM) were analyzed and, with the exception of Peptide-8, each concentration was measured in duplicate. After capture of peptides, the antibody titration was injected at 60 μL/min for 3 minutes (association phase), followed by 300 s of buffer only (dissociation phase).
The data were double referenced by subtraction of the interspot response and the curves generated by the buffer-only injection. […] The data were analyzed using a simple Langmuir 1:1 binding model.

[2] = molecular target: T2, tau phospho-peptide of the direct ELISA of Example 11; assay: direct ELISA, peptide coated
T2 construct: also called pT217 peptide; pT212/pT217 peptide
How it was run: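 Tau phospho-peptide coated directly on plates at 10 ng/mL overnight, then incubated with antibodies. Bound Fab detected with HRPO-labelled anti-Fab antibody (1:10000) and TMB substrate. Binding curves generated from the read-out.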

Peptide-7 = Peptide-7 (human, phosphothreonine 212, phosphoserine 214 (tau 2N4R numbering); SCBiot and dPEG4 at the N-terminus; amide at the C-terminus); assay: SPR ProteOn, peptide captured, Fab as analyte; range of n=2; upper end of n=2 range
Protocol: as §1, §2
(§3) The data were double referenced by subtraction of the interspot response and the curves generated by the buffer-only injection. The chip surface was regenerated using a single injection of 0.85% phosphoric acid at 30 μL/min for 100 s contact time, followed by four injections of running buffer before the next antibody titration injection. The data processing and kinetic analysis were done using the instrument software. The data were analyzed using a simple Langmuir 1:1 binding model.

Peptide-4 [3] = molecular target: T3, Peptide-4 (human, phosphoserine 210, phosphothreonine 217 (tau 2N4R numbering); SCBiot and dPEG4 at the N-terminus; amide at the C-terminus); assay: as above
Protocol: as §1, §2, §3

Peptide-5 [4] = molecular target: T4, Peptide-5 (human, phosphoserine 210, phosphoserine 214, phosphothreonine 217 (tau 2N4R numbering); SCBiot and dPEG4 at the N-terminus; amide at the C-terminus); assay: as above
Protocol: as §1, §2, §3

Peptide-6 = Peptide-6 (human, phosphothreonine 217 (tau 2N4R numbering); SCBiot and dPEG4 at the N-terminus; amide at the C-terminus); assay: as above
Protocol: as §1, §2, §3

Peptide-2 [5] = molecular target: T1, Peptide-2; assay: as above
Protocol: as §1, §2, §3

Peptide-4 [6] = molecular target: T3, Peptide-4; assay: SPR ProteOn, peptide captured, Fab as analyte; range of n=2
Protocol: as §1, §2, §3

Peptide-5 [7] = molecular target: T4, Peptide-5; assay: as above
Protocol: as §1, §2, §3

Peptide-1 = molecular target: T5, Peptide-1 (human, phosphothreonine 212, phosphoserine 214, phosphothreonine 217 (tau 2N4R numbering); short chain biotin (SCBiot) and dPEG4 at the N-terminus; amide at the C-terminus); assay: as above
T5 construct: also called tau peptide phosphorylated at T212/S214/T217
Protocol: as §1, §2, §3

Peptide-2 [8] = molecular target: T1, Peptide-2; assay: as above
Protocol: as §1, §2, §3

T5 sequence (peptide, as listed by the source): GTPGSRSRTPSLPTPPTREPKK

Kd (Peptide-2 [1]): 0.27 nM
EC50 [2]: 0.11 nM
koff (Peptide-7): 0.0056 s⁻¹
kon (Peptide-7): 487000 M⁻¹ s⁻¹
koff (Peptide-4 [3]): 0.00627 s⁻¹
kon (Peptide-4 [3]): 968000 M⁻¹ s⁻¹
koff (Peptide-5 [4]): 0.00598 s⁻¹
kon (Peptide-5 [4]): 863000 M⁻¹ s⁻¹
koff (Peptide-6): 0.00625 s⁻¹
kon (Peptide-6): 558000 M⁻¹ s⁻¹
koff (Peptide-2 [5]): 0.000245 s⁻¹
kon (Peptide-2 [5]): 982000 M⁻¹ s⁻¹
Kd (Peptide-4 [6]): 6.48 to 6.71 nM
Kd (Peptide-5 [7]): 6.6 to 10.8 nM
koff (Peptide-1): 0.000236 s⁻¹ and 0.000324 s⁻¹
kon (Peptide-1): 870000 M⁻¹ s⁻¹ and 1.67e+06 M⁻¹ s⁻¹
Kd (Peptide-2 [8]): 0.09 to 0.45 nM
koff (Peptide-2 [8]): 9.1e-05 s⁻¹
B1: PT3 Fab (B187) (Fab, V domains shown)
VH: EVKLVESGGDLVKPGGSLKLSCAASGFTFSSYAMSWVRQNPEKRLEWVASISKGGNTYYPNSVKGRFTISRDNARNILYLQMSSLRSEDTALYYCARGWGDYGWFAYWGQVTLVTVSA
VL: DIKMTQSPSSMYASLGERVTITCKASQDINRYLNWFQQKPGKSPKTLIYRANRLLDGVPSRFSGSGSGQDYSLTISSLDYEDMGIYYCLQYDEFPLTFGDGTKLELK
notes: Chimeric Fab: mouse variable regions, human IgG1/kappa constant region, 6xHis tag at the C-terminus of the heavy chain; also called mouse parental Fab of PT3
